The record followed here is patent US20070259417A1 (published 2007).

Ends that are not written are not given here.

Experiment [1] deals with agarose-immobilized anhydro-trypsin (UniProt P00760). Briefly: pfu eluted from anhydrotrypsin beads.
Experiment [2] has the same target. Briefly: phage titer after incubation with anhydrotrypsin beads.
The target in experiment [3] is trypsin (UniProt P00760). Put plainly: pfu acid eluted from trypsin beads.
In experiment [4] the target is trypsin (UniProt P00760). Put plainly: pfu eluted from trypsin beads.
For experiment [5], the target named is agarose-immobilized anhydro-trypsin (UniProt P00760). Briefly: pfu acid eluted from anhydrotrypsin beads, experiment 1.
Experiment [6] concerns the target T1, human neutrophil elastase (human, UniProt P08246 30-247).
T1 construct: also called HNE; immobilized HNE
T1 sequence (looked up): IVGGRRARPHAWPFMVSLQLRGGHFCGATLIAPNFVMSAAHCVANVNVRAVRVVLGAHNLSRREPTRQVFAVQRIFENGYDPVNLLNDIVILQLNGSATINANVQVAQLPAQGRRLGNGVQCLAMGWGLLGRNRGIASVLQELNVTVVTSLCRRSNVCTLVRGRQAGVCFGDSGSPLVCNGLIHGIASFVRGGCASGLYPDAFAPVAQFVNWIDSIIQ
Put plainly: pfu acid eluted from HNE beads.

Experiment [7] deals with agarose-immobilized anhydro-trypsin (UniProt P00760). Briefly: pfu acid eluted from anhydrotrypsin beads, experiment 2.
In experiment [8] the target is M13mp18 phage. Briefly: titer of M13MP18 after normal rabbit IgG.
Experiment [9] has as its target M13mp18 phage. Put plainly: titer of M13MP18 after normal rabbit IgG and protein A beads.
The target in experiment [10] is agarose-immobilized streptavidin (UniProt P22629). Briefly: titer after 2 h with 5 ul immobilized streptavidin.
Experiment [11] has as its target agarose-immobilized anhydro-trypsin (UniProt P00760). Put plainly: titer after 4 h with 10 ul immobilized anhydro-trypsin.
Experiment [12] has the same target. Put plainly: titer after 4 h with 5 ul immobilized anhydro-trypsin.
Experiment [13] shares this target. Briefly: dot blot of phage eluted at pH 2.2 from 5 ul immobilized anhydro-trypsin.
Experiment [14] shares this target. Put plainly: titer after 1 h with 10 ul immobilized anhydro-trypsin.
Experiment [15] shares this target. Put plainly: titer after 4 h with 2 ul immobilized anhydro-trypsin.
Experiment [16] has the same target. Briefly: titer after 2 h with 5 ul immobilized anhydro-trypsin.
Experiment [17] has as its target agarose-immobilized streptavidin (UniProt P22629). Put plainly: titer after 4 h with 5 ul immobilized streptavidin.
In experiment [18] the target is trypsin (UniProt P00760). Briefly: pH 2.2 eluate from immobilized active trypsin, bound in TBS pH 7.5.
For experiment [19], the target named is agarose-immobilized anhydro-trypsin (UniProt P00760). Put plainly: dot blot of phage eluted at pH 2.2 from 10 ul immobilized anhydro-trypsin.
Experiment [20] shares this target. Put plainly: dot blot of phage eluted at pH 2.2 from 2 ul immobilized anhydro-trypsin.
In experiment [21] the target is agarose-immobilized streptavidin (UniProt P22629). Briefly: titer after 1 h with 5 ul immobilized streptavidin.
The target of experiment [22] is trypsin (UniProt P00760). Put plainly: pH 2.2 eluate from immobilized active trypsin, bound in CBS pH 6.5.
For experiment [23], the target named is agarose-immobilized anhydro-trypsin (UniProt P00760). Briefly: titer after 2 h with 2 ul immobilized anhydro-trypsin.
For experiment [24] the target is unchanged. Put plainly: titer after 1 h with 2 ul immobilized anhydro-trypsin.
Experiment [25] has as its target agarose-immobilized streptavidin (UniProt P22629). Put plainly: dot blot of phage eluted at pH 2.2 from 5 ul immobilized streptavidin.
Experiment [26] addresses agarose-immobilized anhydro-trypsin (UniProt P00760). Put plainly: titer after 1 h with 5 ul immobilized anhydro-trypsin.
Experiment [27] has the same target. Briefly: titer after 2 h with 10 ul immobilized anhydro-trypsin.
Experiment [28] has as its target T1, human neutrophil elastase. Put plainly: extended pH elution from HNE beads.
Experimental: To test if phage displaying the ITI-DI-III fusion protein interact strongly with the proteases human neutrophil elastase (HNE) or cathepsin-G, aliquots of display phage were incubated with agarose-immobilized HNE or cathepsin-G beads (HNE beads or Cat-G beads, respectively). […] The procession in lowering pH during the elution was: pH 7.0, 6.0, 5.5, 5.0, 4.5, 4.0, 3.5, 3.0, 2.5, and 2.0. Following elution and neutralization, the various input, wash, and pH elution fractions were titered.
Experiment [29] concerns the target T1, human neutrophil elastase. Briefly: abbreviated pH elution from HNE beads. The method, then: (§1) To test if the changes at positions 15, 16, 18, and 19 of the ITI-DI-III fusion protein influence binding of display phage to HNE beads, abbreviated pH elution profiles were measured. […] The beads were washed and phage were eluted as described (Example III), except that only three pH elutions were performed: pH 7.0, 3.5, and 2.0.

The target in experiment [30] is T1, human neutrophil elastase. Put plainly: HNE beads, abbreviated elution, pH 3.5. The method, then:
as §1

Experiment [31] addresses human Cathepsin G (human) (UniProt P08311). Briefly: Cat-G beads, pH 3.5 eluate.
For experiment [32] the target is unchanged. Put plainly: Cat-G beads, pH 4.0 eluate.
The target in experiment [33] is T1, human neutrophil elastase. Put plainly: HNE beads, abbreviated elution, pH 2.0. The method, then:
as §1

For experiment [34], the target named is T1, human neutrophil elastase. Briefly: HNE beads, abbreviated elution, pH 7.0. Here is the method:
as §1

The target of experiment [35] is human Cathepsin G (human) (UniProt P08311). Briefly: Cat-G beads, pH 2.0 eluate.
The target is the same in experiment [36]. Put plainly: Cat-G beads, pH 6.0 eluate.
Experiment [37] shares this target. Put plainly: Cat-G beads, pH 5.0 eluate.
For experiment [38], the target named is T1, human neutrophil elastase. Put plainly: HNE beads, abbreviated elution, SUM of pH fractions. The method, then:
as §1

Experiment [39] concerns the target human Cathepsin G (human) (UniProt P08311). Put plainly: Cat-G beads, pH 4.5 eluate.
The target is the same in experiment [40]. Put plainly: Cat-G beads, pH 7.0 eluate.
The target is the same in experiment [41]. Put plainly: Cat-G beads, pH 2.5 eluate.
Experiment [42] shares this target. Briefly: Cat-G beads, pH 3.0 eluate.
Experiment [43] shares this target. Put plainly: Cat-G beads, SUM of all pH elution fractions.
The target is the same in experiment [44]. Briefly: Cat-G beads, pH 5.5 eluate.

Sequence of agarose-immobilized streptavidin (P22629 37-163 limits assumed): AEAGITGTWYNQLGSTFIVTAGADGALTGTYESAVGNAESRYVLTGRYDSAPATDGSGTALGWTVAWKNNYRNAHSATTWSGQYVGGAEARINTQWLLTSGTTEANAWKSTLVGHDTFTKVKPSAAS
Sequence of human Cathepsin G (human) (P08311 21-244 limits assumed): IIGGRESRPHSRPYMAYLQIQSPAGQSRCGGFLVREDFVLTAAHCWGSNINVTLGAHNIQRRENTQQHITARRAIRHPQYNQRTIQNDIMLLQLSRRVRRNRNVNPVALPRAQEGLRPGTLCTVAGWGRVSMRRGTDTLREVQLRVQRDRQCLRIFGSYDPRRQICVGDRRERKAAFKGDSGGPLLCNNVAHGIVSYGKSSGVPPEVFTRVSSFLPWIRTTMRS
Sequence of agarose-immobilized anhydro-trypsin (P00760 24-246): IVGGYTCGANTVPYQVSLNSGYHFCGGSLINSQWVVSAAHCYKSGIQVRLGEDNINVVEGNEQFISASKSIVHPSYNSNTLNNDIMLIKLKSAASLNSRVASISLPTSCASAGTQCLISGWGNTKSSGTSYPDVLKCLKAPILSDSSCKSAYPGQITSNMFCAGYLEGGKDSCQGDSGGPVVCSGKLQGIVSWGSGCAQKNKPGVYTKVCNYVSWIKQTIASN
Sequence of trypsin (P00760 24-246): as above

On to M13mp18 phage, for which the binding relative to M13MP18 (in experiment [1]; with trypsin [3]; with trypsin [4]; in experiment [5]; in experiment [6]; in experiment [7]) was 1 fold throughout. The eluted phage, percent of input in experiment [1] stood at 0.1%; in the experiment with trypsin [3], 0.0005%; with trypsin [4], 0.00023%; in experiment [5] it was 0.2%; in experiment [6] it was 0.0003%; in experiment [7], 0.3%. Further, in experiment [2], the pfu after incubation as percent of input worked out at 121%.
In the case of “normal rabbit IgG / normal rabbit serum (antibody)”, the results for the percent of input phage (pfu) with M13mp18 phage [8] and in the experiment with M13mp18 phage [9] were 104% and 88%, respectively.
For the molecule MK phage, the percent residual titer in [10] is 96%; in [11] it was 106%; in [12], 96%; in experiment [14], 99%; in [15], 95%; in experiment [16] it was 111%. Further, the percent residual titer in [17] was 98%; in experiment [21] it was 106%; in experiment [23], 103%; in [24], 97%; in experiment [26] it was 110%; in [27], 93%. Besides, the percent of total phage recovered in elution buffer in experiment [13], in experiment [19], in experiment [20] and in [25] was less than 1% throughout. The percent of input phage with trypsin [18] came out at 0.00034%; with trypsin [22] it was 0.00028%. Further, the total pfu recovered in elution buffer with trypsin [18] amounted to 1.48e+06 pfu; with trypsin [22] it was 1.35e+06 pfu.

B1: MA-ITI-E7 phage (designed binder)
chain: KEDSCQLGYSAGPCVAMFPRYFYNGTSMACETFQYGGCMGNGNNFVTEKECLQTCR
modifications: not fully specified; cysteine pairing not given here
notes: two phage strains (1 and 2) of the same construct were tested; also called MA-ITI-E7 1; MA-ITI-E7 2; not shown: The join to the display carrier
As to B1, the “fold lower total fraction of input eluted than EpiNE-7 phage” value in experiment [28] was roughly 40 fold. Also, in experiment [29], the “fold greater total fraction of input eluted than MA-ITI phage” value was 10 fold and the “fold lower total fraction of input eluted than EpiNE-7 phage” value is 40 fold. For the same molecule, in [30], the fraction of input was 8e-05.

B2: MA-ITI phage (other, human, UniProt P02760 227-281, looked up)
chain: KEDSCQLGYSAGPCMGMTSRYFYNGTSMACETFQYGGCMGNGNNFVTEKECLQTC
notes: residue range counts on the mature ITI light chain (UTI), not on the AMBP precursor entry; also called MA-ITI 2; MA-ITT; not shown: M13 gene III protein, mature
For the molecule B2, the fraction of input in [31] came out at 9.6e-07; in experiment [32], 9.6e-07; in experiment [33] it was 1e-06; in experiment [34], 1e-05; in experiment [35], 7e-07; in [36] it was 5e-06. Also, the fraction of input in experiment [37] amounted to 2.4e-06; in experiment [38] it was 1.4e-05; in [39] it was 1.5e-06; in experiment [40] it was 1.3e-05; in experiment [41], 5.9e-07; in [42] it was 7.8e-07. For the same molecule, the results for the fraction of input in experiment [43], in experiment [30] and in experiment [44] were 3e-05, 3e-06 and 2.6e-06, respectively. Besides, the total pfu in sample was found to be 440000 pfu in experiment [31]; 440000 pfu in [32]; 320000 pfu in experiment [35]; 2.3e+06 pfu in experiment [36]; 1.1e+06 pfu in experiment [37]; 670000 pfu in [39]. In addition, the total pfu in sample in experiment [40] worked out at 6.1e+06 pfu; in experiment [41] it was 270000 pfu; in experiment [42] it was 360000 pfu; in experiment [43] it was 1.4e+07 pfu; in [44], 1.2e+06 pfu.
